These results are taken from patent US20210009693A1 (MABSPACE BIOSCIENCES SUZHOU, published 2021).

Where two headings read alike, the source gives them in different places.

Assay [1] addresses T1, Recombinant Human PD-L1/CD274 Protein (hPD-L1-his) (human, UniProt Q9NZQ7 19-238).
T1 construct: range 19-238; ACRO Biosystem PD1-H5229, made in HEK293; also called human PD-L1-his; hPD-L-his
The assay can be described thus: ELISA on coated hPD-L1-his; bound at pH7.4, then 2 h at pH5.5. Background: An ELISA detects its analyte on a solid surface through an enzyme-linked reagent.

Assay [2] addresses T1, Recombinant Human PD-L1/CD274 Protein …. The assay can be described thus: ELISA on coated hPD-L1-his.
The target of assay [3] is T2, human PD-L1 expressed on cells (human, UniProt Q9NZQ7 19-290).
T2 construct: whole, on cells; also called hPD-L1 expressed on HCC827; hPD-L1 on MC38/hPD-L1 cells
T2 sequence (Q9NZQ7 19-290): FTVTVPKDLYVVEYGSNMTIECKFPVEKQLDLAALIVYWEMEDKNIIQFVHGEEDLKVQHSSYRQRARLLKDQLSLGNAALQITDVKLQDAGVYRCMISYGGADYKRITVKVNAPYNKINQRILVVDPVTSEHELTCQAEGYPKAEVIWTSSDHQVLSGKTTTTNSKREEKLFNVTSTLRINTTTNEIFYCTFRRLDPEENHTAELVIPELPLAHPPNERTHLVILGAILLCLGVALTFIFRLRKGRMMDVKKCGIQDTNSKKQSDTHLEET
In words: FACS, IFN-gamma stimulated HCC827 cells. The protocol: Log phase IFN-γ stimulated (500U/ml for 2 days) HCC827 cells were collected and resuspended in blocking buffer (5% BSA+PBS). 2×10\hat{ }5 cells were added to each tube and then washed once with PBS (1500 rpm, 5 mins, RT). The 100 μl/tube serial diluted biotinylated PD-L1 antibodies with blocking buffer were added into corresponding tubes and incubate at 4° C. for 1 hr.
(In flow cytometry, cells or beads pass a laser one at a time.)

Assay [4] has as its target T2, human PD-L1 expressed on cells. The assay can be described thus: blocking FACS on HCC827 cells; blocked ligand: biotinylated hPD-1-N297A. The protocol:
Log phase IFN-γ stimulated (500U/ml for 2 days) HCC827 cells were collected and resuspended in blocking buffer (5% BSA+PBS). 2×10\hat{ }5 cells were added to each tube and then washed once with PBS (1500 rpm, 5 mins, RT). The 100 μl/tube serial diluted PD-L1 antibodies (see FIG. 8) with blocking buffer were added into corresponding tubes and incubate at 4° C. for 1 hr. […] After washing for three times with PBS, 100 μl/tube streptavidin-PE 1:200 (EBiosciences) in blocking buffer was added to each tube. The cells were incubated at 4° C. for 1 hr and then washed twice with PBS, followed by resuspending cells in 150 μl PBS for each sample. The cells were then transferred into FACS tube and the binding of the antibodies to the cells were detected with flow cytometry (ACEA Bioscience Novocyte).

In assay [5] the target is T1, Recombinant Human PD-L1/CD274 Protein …. The assay can be described thus: ELISA on coated hPD-L1-his; bound at pH7.4, then 2 h at pH7.4.
Assay [6] has as its target T3, Human PD-L1/CD274 with C-Fc Tag (hPD-L1-Fc) (human, UniProt Q9NZQ7 19-238).
T3 construct: range 19-238; ACRO Biosystem PD1-H5258, made in HEK293; also called human PD-L1-Fc; not shown: Fc fragment of human IgG1 at C-terminus
The assay can be described thus: blocking ELISA on coated hPD-L1-Fc; blocked ligand: biotinylated hPD-1-N297A.

The target of assay [7] is T4, human PD-L1-Fc mutant E58A (human).
T4 construct: Position 58 counts on native human PD-L1 (NP_054862.1); also called E58A mutant
T4 sequence (chain, as listed by the source E58A E58A limits assumed): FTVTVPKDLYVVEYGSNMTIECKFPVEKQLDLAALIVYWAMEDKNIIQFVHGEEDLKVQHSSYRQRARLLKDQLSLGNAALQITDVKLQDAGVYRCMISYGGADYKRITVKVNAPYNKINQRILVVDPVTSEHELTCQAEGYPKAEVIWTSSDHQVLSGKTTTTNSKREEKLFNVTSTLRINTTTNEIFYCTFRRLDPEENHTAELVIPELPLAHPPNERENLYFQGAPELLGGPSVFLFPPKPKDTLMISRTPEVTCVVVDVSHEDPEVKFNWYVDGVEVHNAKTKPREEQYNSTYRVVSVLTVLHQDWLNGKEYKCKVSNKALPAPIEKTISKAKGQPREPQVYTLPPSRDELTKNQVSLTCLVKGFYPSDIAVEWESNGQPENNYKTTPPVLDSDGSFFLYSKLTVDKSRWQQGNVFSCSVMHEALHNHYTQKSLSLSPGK
In words: ELISA on captured PD-L1-Fc, as in Example 18A.

Assay [8] addresses T5, wild type human PD-L1-Fc protein (SEQ ID NO: 107) (human).
T5 construct: Extracellular human PD-L1 (amino acid 19-238) with Fc fragment of human IgG1, expressed in 293T cells and used as culture supernatant; also called WT PD-L1; wild-type PD-L1
The assay can be described thus: ELISA on captured PD-L1-Fc, as in Example 18A.

Assay [9] concerns the target T2, human PD-L1 expressed on cells. In words: FACS, IFN-gamma stimulated HCC827 cells. The protocol: Log phase IFN-γ stimulated (500U/ml for 2 days) HCC827 cells were collected and resuspended in blocking buffer (5% BSA+PBS). 2×10\hat{ }5 cells were added to each tube and then washed once with PBS (1500 rpm, 5 mins, RT). The 100 μl/tube serial diluted PD-L1 antibodies purified from hybridoma supernatant in blocking buffer were added into corresponding tubes and were incubated at 4° C. for 1 hr. The cells were then washed twice with 1 ml PBS, followed by adding 100 μl/tube of 2nd antibody (1:400 anti-mIgG (H+L)-PE, Cell signaling) in blocking buffer. The cells were incubated at 4° C. for 1 hr and then washed twice with PBS, followed by resuspending cells in 150 μl PBS for each sample. The cells were then transferred into FACS tube and the bindings of the antibodies to the cells were detected using flow cytometry (BD Accuri C6) (see FIG. 5A).
This is another data set of the same source.

The target is the same in assay [10]. The assay can be described thus: blocking FACS on HCC827 cells; blocked ligand: biotinylated hPD-1-N297A. The protocol:
Log phase IFN-γ stimulated (500U/ml for 2 days) HCC827 cells were collected and resuspended in blocking buffer (5% BSA+PBS). 2×10\hat{ }5 cells were added to each tube and then washed once with PBS (1500 rpm, 5 mins, RT). […] The cells were incubated at 4° C. for 1 hr and then washed twice with PBS, followed by resuspending cells in 150 μl PBS for each sample.
The source holds these as a separate data set.

The target in assay [11] is T1, Recombinant Human PD-L1/CD274 Protein …. The assay can be described thus: ELISA, purified mouse antibody on coated hPD-L1-his. As to the method:
High-binding clear polystyrene 96 well plates (Nunc) were coated with 100 μl/well of a 0.5 μg/ml hPD-L1-his in high pH coating buffer and incubated overnight 4° C. Then plates were washed once on an automatic plate washer using washing buffer (PBS+0.1% Tween 20 (Sigma)). 200 μl of blocking buffer (PBS+1% BSA+1% normal goat serum+0.05% Tween-20) was added to each well and incubated 2 hours at room temp. Then add serially diluted purified antibodies with dilution buffer (PBS+1% BSA+1% normal goat serum+0.01% Tween-20) and incubate for 1 hour at RT. The plates were then washed 3 times using the method described above. 100 μl/well of a solution of HRP conjugated goat anti-mouse Fc antibody (Abcam) in dilution buffer was then added to each well of the plate. After that the ELISA plates were allowed to incubate for 60 min at RT then plates were washed 3 times with 250 μl/well washing buffer. Finally, 100 μl/well of TMB was added to each well and was terminated using 0.64M H₂SO₄. The plates were read on a Thermo Multiscan FC at 450 nM (see FIG. 3).

Assay [12] concerns the target T6, Recombinant Mouse PD-L1/CD274 Protein (mPD-L1-his) (mouse, UniProt Q9EP73 19-238).
T6 construct: range 19-238; ACRO Biosystem PD1-M5220; also called mouse PD-L1-his
In words: ELISA, 20 ug/ml antibody on coated mouse PD-L1 (his-tagged per text, mPD-L1-Fc per sheet title). Put shortly:
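Wells coated overnight at 4 °C with 1 μg/ml mouse PD-L1-his, blocked 2 h with BSA/goat serum buffer; purified hybridoma mouse antibodies at 20 μg/ml bound 1 h at RT. Detection by HRP goat anti-mouse Fc (60 min, RT), TMB, acid stop, absorbance at 450 nm.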

The target of assay [13] is T7, hPD-L2-Fc (human, UniProt Q9BQ51 20-219).
T7 construct: Acrobiosystems PD2-H5251; also called human PD-L2 protein; not shown: Fc tag
T7 sequence (looked up): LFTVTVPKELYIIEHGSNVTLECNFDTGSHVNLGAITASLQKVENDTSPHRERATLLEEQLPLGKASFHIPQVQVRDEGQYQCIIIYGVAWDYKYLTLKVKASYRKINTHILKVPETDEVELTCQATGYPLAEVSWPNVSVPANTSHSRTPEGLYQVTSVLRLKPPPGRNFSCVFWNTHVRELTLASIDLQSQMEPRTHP
The assay can be described thus: ELISA, plate coated with hPD-L2-Fc.

Assay [14] deals with T1, Recombinant Human PD-L1/CD274 Protein …. The assay can be described thus: ELISA on coated hPD-L1-his; bound at pH7.4, then 2 h at pH5.5. The source holds these as a separate data set.
Assay [15] has as its target T6, Recombinant Mouse PD-L1/CD274 Protein …. The assay can be described thus: ELISA, plate coated with mouse PD-L1-his.
The target of assay [16] is T1, Recombinant Human PD-L1/CD274 Protein …. The assay can be described thus: ELISA on coated hPD-L1-his; bound at pH7.4, then 2 h at pH7.4. This is another data set of the same source.
For assay [17] the target is unchanged. In words: ELISA on coated human PD-L1-his. The protocol:
(§1) High-binding clear polystyrene 96-well plates (Nunc) were coated with 100 μl/well of a 0.5 μg/ml human or cynomolgus (cyno) PD-L1-his in high pH coating buffer and incubated overnight at 4° C. Then plates were washed once on an automatic plate washer using washing buffer (PBS+0.1% Tween 20 (Sigma)). 200 μl of blocking buffer (PBS+1% BSA+1% normal goat serum+0.05% Tween-20) was added to each well and incubated for 2 hours at room temperature. Then add serial diluted antibodies with dilution buffer (PBS+1% BSA+1% normal goat serum+0.01% Tween-20) and incubated for 1 hour at RT. The plates were then washed 3 times using the method described above. […] After that the ELISA plates were allowed to incubate for 60 min at RT then plates were washed 3 times with 250 μl/well washing buffer. Finally, 100 μl/well of TMB was added to each well and the reaction was terminated using 0.64M H₂SO₄. The plates were read on a Thermo Multiscan FC at 450 nM (see FIG. 6A to 6E).

For assay [18], the target named is T8, Cynomolgus PD-L1/CD274 with His tag (cPD-L1-His) (cynomolgus).
T8 construct: range 19-238; ACRO Biosystem PD1-C52H4; also called cynomolgus (cyno) PD-L1-his; cynomolgis PD-L1-his
In words: ELISA on coated cynomolgus PD-L1-his. The protocol:
as §1

T1 sequence (Q9NZQ7 other isoform, or with tags, fused parts or gaps limits assumed): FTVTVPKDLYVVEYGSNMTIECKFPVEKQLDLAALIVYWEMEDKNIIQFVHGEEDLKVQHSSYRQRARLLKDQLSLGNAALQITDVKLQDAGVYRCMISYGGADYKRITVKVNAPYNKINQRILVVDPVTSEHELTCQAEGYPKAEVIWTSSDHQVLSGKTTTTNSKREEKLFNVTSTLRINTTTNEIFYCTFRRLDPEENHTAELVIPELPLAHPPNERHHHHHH
T5 sequence (chain, as listed by the source limits assumed): as the sequence (chain, as listed by the source E58A E58A limits assumed) above, with A40E counted along it
T6 sequence (Q9EP73 other isoform, or with tags, fused parts or gaps limits assumed): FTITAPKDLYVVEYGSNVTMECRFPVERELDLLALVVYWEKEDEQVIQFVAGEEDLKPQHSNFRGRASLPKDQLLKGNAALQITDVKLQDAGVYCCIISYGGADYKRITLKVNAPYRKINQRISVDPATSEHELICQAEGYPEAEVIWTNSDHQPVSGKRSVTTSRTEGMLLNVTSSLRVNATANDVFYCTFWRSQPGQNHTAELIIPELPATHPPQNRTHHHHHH
T3 sequence (Q9NZQ7 19-238 limits assumed): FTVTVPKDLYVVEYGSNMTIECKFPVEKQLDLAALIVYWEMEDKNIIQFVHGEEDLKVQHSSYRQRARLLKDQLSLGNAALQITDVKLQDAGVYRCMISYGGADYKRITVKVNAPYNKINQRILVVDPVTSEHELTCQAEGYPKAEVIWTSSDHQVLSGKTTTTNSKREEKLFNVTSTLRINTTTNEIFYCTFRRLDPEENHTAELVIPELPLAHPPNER

B1: 23F11-C (antibody, V domains shown)
VH: QVQLQQPGAELVKPGASVKLSCKASGYSFTTYWMHWVKQRPGQGLEWIGMIQPNSGGTKYNEKFKKKATLTVDKSSTTASMELSSLTSEDSAVYYCARGAGTVDYFDYWGQGSTLTVSS
VL: DIVLTHSPVSLAVSLGQRATISCRASESVDIYGNSFMHWYQQKPGQPPKLLIYRASNLESGIPARFSGSGSRTDFTLTINPVEADDVATYYCQQSTEDPYTFGGGTKLEIK
notes: Mouse variable regions fused to a human IgG1 constant region; also called 23F11-chimeric; chimeric antibody 23F11
On to B1, for which the EC50 (read off the curve) (in general, the concentration needed to bring the measured effect to its halfway point) in assay [1] is about 0.03 µg/mL; in [2] it was about 4 ng/mL; in assay [3], about 0.04 µg/mL; in assay [5] it was about 0.02 µg/mL. Further, the “IC50 (read off the curve)” value in assay [4] was about 0.04 µg/mL; in assay [6], about 0.05 µg/mL.

B2: 22C9 (antibody, V domains shown)
VH: QVQLQQSGAELVKPGASVKLSCKASGYTFTSYWMHWVWQRPGQGLEWIGMIHPNSDITNCNENFKHTVTLTVDKSSSTAYMQLSSLTSEDSAVFYCARSDGSSYWYFDVWGTGTTVTVSS
VL: SIVMTQTPKFLSVSAGDRVTITCKAGQSVNNDVAWYQQKPGQSPKLLIYYASNRYTGVPDRFTGSGYGTDFTFTISTVQAEDLAVYFCQQDFSSPLTFGAGTKLELK
notes: Mouse monoclonal from hybridoma; also called mouse monoclonal antibody 22C9
Consider B2, for which, in assay [7], the “% of binding of Ab to E58A mutant vs. that to WT PD-L1” value stood at 17.2%, the “Mean OD450” value came to 0.33 OD450, the “OD450 nM of sample-1” value came out at 0.35 OD450 and the “OD450 nM of sample-2” value came out at 0.309 OD450. Also, in assay [8], the “Mean OD450” value is 1.92 OD450, the “OD450 nM of sample-1” value is 1.9 OD450 and the “OD450 nM of sample-2” value was found to be 1.94 OD450. In assay [9], the “EC50 (read off the curve)” value was about 0.1 µg/mL. In assay [10], the “IC50 (read off the curve)” value was about 0.2 µg/mL. Also, the “EC50 (read off the curve)” value in [11] is about 0.08 µg/mL. Also, the binding result in assay [12] is recorded as “no binding (tested: 20 ug/ml)”. The binding result in [13] is given as “no binding (tested: 2 ug/ml)”.

B3: 4B6-C (antibody, V domains shown)
VH: EVQLQQSGPELVKPGASVKISCKASGYVFTDYYMNWVKQSHGKSLEWIGDINPNNGGTSYNHKFKGKATVTVDKSSRTAYMELLSLTSEDSAVYYCVKWGDGPFAYWGQGTLVTVSA
VL: DIVMTQSQKFMSTSVGDRVSITCKASQNVGAAVAWYQQKPGQSPKLLIYSASNRYTGVPDRFTGSGSGTDFTLTISNMQSEDLADYFCQQYSNYPTFGSGTKLGIK
notes: Mouse variable regions fused to a human IgG1 constant region; also called 4B6-chimeric; chimeric antibody 4B6
Turning to B3, the “EC50 (read off the curve)” value in assay [14] was about 0.02 µg/mL; in assay [16], about 0.01 µg/mL; in [17] it was about 0.01 µg/mL; in assay [18] it was about 0.01 µg/mL. Besides, in [15], the binding result was “no binding (tested: 20 ug/ml)”.
